This note sets out measurements from patent US20090298765A1 (Takeda / Millennium, published 2009).

In general, IC50 refers to the point on the concentration scale where inhibition reaches its midpoint.

Non-standard residues stand in square brackets, D forms with d. Primed or numbered codes have the meaning given here. No end group written: not given here. *: point of attachment. GuAmb = 4-guanidinomethylbenzoyl, N=C(N)NCc1ccc(C(=O)*)cc1; Phe(3-CF3) = N[C@@H](Cc1cccc(C(F)(F)F)c1)C(=O)O; Arg(Et)′ = arginine carrying an ethyl group; Phe(3-F) = N[C@@H](Cc1cccc(F)c1)C(=O)O; Phe(4-F) = N[C@@H](Cc1ccc(F)cc1)C(=O)O; Arg(Me) = CNC(=N)NCCC[C@H](N)C(=O)O; Cha = N[C@@H](CC1CCCCC1)C(=O)O; Arg(Et)″ = ethylated arginine; azaGly = NNC(=O)O

The target in assay [1] is T1, human OT7T175 (metastin receptor) (human, UniProt Q969F8 1-398).
T1 construct: expressed on CHO cells; also called hOT7T175; hOT7T175-expressed CHO cells
In words: competition with Cy-5 metastin (40-54) on hOT7T175-CHO cells, FMAT. As to the method: hOT7T175-Expressed CHO cells were cultured in MEM-α medium (nucleic acid-free) containing 10% dialyzed serum. The medium was removed and the adhered cells were washed with PBS. Then, PBS containing 5 mM EDTA was added and the cells were scraped from a flask with a cell scraper.
To each well of a 96-Well Black Clear Bottom Microplate (Applied Biosystems, Inc.), 10 μL of assay buffer containing 1% dimethylsulfoxide was added to examine total binding, 10 μL of 10 μM non-labeled peptide (having the same amino acid sequence as that of labeled one) solution diluted with assay buffer to examine non-specific binding, and 10 μL of a test compound diluted with assay buffer to examine a binding inhibition activity of the test compound, and furthermore, 90 μL each of the cell suspension was dispensed to each well. […] Specific binding is calculated as non-specific binding subtracted from total binding. The binding inhibition activity of a test compound is shown by a ratio of the value obtained by subtracting a measured value in presence of a test compound from the total binding to the specific binding.

For assay [2], the target named is T1, human OT7T175 (metastin receptor). In words: cell-based or functional assay.

T1 sequence (Q969F8 whole entry L364H): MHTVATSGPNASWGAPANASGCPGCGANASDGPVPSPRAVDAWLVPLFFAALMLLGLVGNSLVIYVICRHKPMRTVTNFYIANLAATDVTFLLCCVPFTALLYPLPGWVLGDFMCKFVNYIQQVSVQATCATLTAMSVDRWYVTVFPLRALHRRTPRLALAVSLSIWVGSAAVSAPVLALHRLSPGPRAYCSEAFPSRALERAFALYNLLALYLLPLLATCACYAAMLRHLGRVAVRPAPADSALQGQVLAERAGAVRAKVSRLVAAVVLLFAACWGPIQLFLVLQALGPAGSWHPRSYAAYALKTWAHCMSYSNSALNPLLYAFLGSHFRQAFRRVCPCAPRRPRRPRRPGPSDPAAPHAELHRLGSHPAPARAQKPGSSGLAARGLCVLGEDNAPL

The molecule YNWNSFGLR[Phe(3-F)]-NH2 (also called Compound No. 197) [[Phe(3F)10]MS10] showed an IC50 in assay [1] of 170 nM. For YNWNSFGL[Arg(Et)′]F-NH2 (also called Compound No. 220) [[Arg(Et)9]MS10], in assay [1], the half-maximal inhibitory concentration (IC50) came to 330 nM. [dN][Cha]NSF[azaGly]L[Arg(Me)]F-NH2 [des(1)-[D-Asn2,Cha3,AzaGly7,Arg(Me)9]MS10]: the “Ca ion level-increasing activity (FLIPR)” value in assay [2] was 1 x Metastin (1-54). GuAmb-F[azaGly]L[Arg(Me)]W-NH2 [des(1-5)-GuAmb-[AzaGly7,Arg(Me)9,Trp10]MS10]: in assay [2], the “Ca ion level-increasing activity (FLIPR)” value is 5 x Metastin (1-54). In assay [1], YNWNSFGLR[Phe(3-CF3)]-NH2 (also called Compound No. 200) [[Phe(3CF3)10]MS10] yielded a half-inhibitory concentration (IC50) of 340 nM. Same read-out and setting: to [dY]NWNSFGL[Arg(Et)″]F-NH2 (also called Compound No. 192) [[D-Tyr1,Arg(Et)9]MS10] belongs 530 nM; to YNWNSFGLR[Phe(3,4F2)]-NH2 (also called Compound No. 198) [[Phe(3,4F2)10]MS10], 170 nM.

B1: [D-Ala1,AzaGly7,Arg(Me)9]MS10 (peptide)
peptide: [dA]NWNSF[azaGly]L[Arg(Me)]F-NH2
modifications: N-terminus assumed
SMILES: CNC(=N)NCCC[C@H](NC(=O)[C@H](CC(C)C)NC(=O)NNC(=O)[C@H](Cc1ccccc1)NC(=O)[C@H](CO)NC(=O)[C@H](CC(N)=O)NC(=O)[C@H](Cc1c[nH]c2ccccc12)NC(=O)[C@H](CC(N)=O)NC(=O)[C@@H](C)N)C(=O)N[C@@H](Cc1ccccc1)C(N)=O
notes: also called Compound No. 259
In turn, B1 came in with a half-inhibitory concentration (IC50) in assay [1] of 250 nM. Moreover, the “Ca ion level-increasing activity (FLIPR)” value in assay [2] is 1 x Metastin (1-54).

B2: [D-Tyr1,D-Asn2,Thr3,AzaGly7,Arg(Me)9,Phe(4F)10]MS10 (peptide)
peptide: [dY][dN]TNSF[azaGly]L[Arg(Me)][Phe(4-F)]-NH2
modifications: N-terminus assumed
SMILES: CNC(=N)NCCC[C@H](NC(=O)[C@H](CC(C)C)NC(=O)NNC(=O)[C@H](Cc1ccccc1)NC(=O)[C@H](CO)NC(=O)[C@H](CC(N)=O)NC(=O)[C@@H](NC(=O)[C@@H](CC(N)=O)NC(=O)[C@H](N)Cc1ccc(O)cc1)[C@@H](C)O)C(=O)N[C@@H](Cc1ccc(F)cc1)C(N)=O
notes: also called Compound No. 316
In assay [1], B2 returned a half-maximal inhibitory concentration (IC50) of 26 nM. In addition, the “Ca ion level-increasing activity (FLIPR)” value in assay [2] is 1 x Metastin (1-54).

B3: [D-Tyr1,D-His2,AzaGly7,Arg(Me)9]MS10 (peptide)
peptide: [dY][dH]WNSF[azaGly]L[Arg(Me)]F-NH2
modifications: N-terminus assumed
SMILES: CNC(=N)NCCC[C@H](NC(=O)[C@H](CC(C)C)NC(=O)NNC(=O)[C@H](Cc1ccccc1)NC(=O)[C@H](CO)NC(=O)[C@H](CC(N)=O)NC(=O)[C@H](Cc1c[nH]c2ccccc12)NC(=O)[C@@H](Cc1c[nH]cn1)NC(=O)[C@H](N)Cc1ccc(O)cc1)C(=O)N[C@@H](Cc1ccccc1)C(N)=O
notes: also called Compound No. 288
B3 came in with a concentration for half-maximal inhibition (IC50) in assay [1] of 0.072 nM. Moreover, the “Ca ion level-increasing activity (FLIPR)” value in assay [2] is 1 x Metastin (1-54). In assay [1], [dY][dN]FNSF[azaGly]L[Arg(Me)]F-NH2 (also called Compound No. 257) [[D-Tyr1,D-Asn2,Phe3,AzaGly7,Arg(Me)9]MS10] displayed a 50% inhibitory concentration (IC50) of 40 nM. Also, in assay [2], the “Ca ion level-increasing activity (FLIPR)” value was 3 x Metastin (1-54). Taken in the same sequence, the figures for [dY][dN]TNSF[azaGly]L[Arg(Me)]F-NH2 (also called Compound No. 284) [[D-Tyr1,D-Asn2,Thr3,AzaGly7,Arg(Me)9]MS10] were 34 nM and 1 x Metastin (1-54).

B4: des(1-2)-Acetyl-[Ala3,AzaGly7,Arg(Me)9]MS10 (peptide)
peptide: Ac-ANSF[azaGly]L[Arg(Me)]F-NH2
SMILES: CNC(=N)NCCC[C@H](NC(=O)[C@H](CC(C)C)NC(=O)NNC(=O)[C@H](Cc1ccccc1)NC(=O)[C@H](CO)NC(=O)[C@H](CC(N)=O)NC(=O)[C@H](C)NC(C)=O)C(=O)N[C@@H](Cc1ccccc1)C(N)=O
For B4, the “Ca ion level-increasing activity (FLIPR)” value in assay [2] was 1 x Metastin (1-54).
